Laboratory results from paper PMC8287830, “(S)-3-Hydroxybutyryl-CoA Dehydrogenase From the Autotrophic 3-Hydroxypropionate/4-Hydroxybutyrate Cycle in Nitrosopumilus maritimus” (Frontiers in Microbiology, 2021).

How the values were obtained:
purified protein [1] = substrate: NC(=O)C1=CN([C@@H]2O[C@H](COP(=O)(O)OP(=O)(O)OC[C@H]3O[C@@H](n4cnc5c(N)ncnc54)[C@H](O)[C@@H]3O)[C@@H](O)[C@H]2O)C=CC1; assay: purified protein; type: biochemical, Nitrosopumilus maritimus; conditions: 0.2 mM acetoacetyl-CoA, 100 mM Tris-HCl pH 7.8, 30°C, reverse reaction, monomeric enzyme
purified protein [2] = substrate: NC(=O)c1ccc[n+]([C@@H]2O[C@H](COP(=O)(O)OP(=O)(O)OC[C@H]3O[C@@H](n4cnc5c(N)ncnc54)[C@H](O)[C@@H]3O)[C@@H](O)[C@H]2O)c1; assay: purified protein; type: biochemical, Nitrosopumilus maritimus; conditions: 0.2 mM (S)-3-hydroxybutyryl-CoA, 100 mM Tris-HCl pH 7.8, 30°C, forward reaction, monomeric enzyme
purified protein [3] = substrate: NC(=O)c1ccc[n+]([C@@H]2O[C@H](COP(=O)(O)OP(=O)(O)OC[C@H]3O[C@@H](n4cnc5c(N)ncnc54)[C@H](OP(=O)(O)O)[C@@H]3O)[C@@H](O)[C@H]2O)c1; assay: purified protein; type: biochemical, Nitrosopumilus maritimus; conditions: 0.2 mM (S)-3-hydroxybutyryl-CoA, 100 mM Tris-HCl pH 7.8, 30°C, forward reaction, monomeric enzyme
purified protein [4] = substrate: C[C@H](O)CC(=O)SCCNC(=O)CCNC(=O)[C@H](O)C(C)(C)COP(=O)(O)OP(=O)(O)OC[C@H]1O[C@@H](n2cnc3c(N)ncnc32)[C@H](O)[C@@H]1OP(=O)(O)O; assay: purified protein; type: biochemical, Nitrosopumilus maritimus; conditions: 2 mM NAD, 100 mM Tris-HCl pH 7.8, 30°C, forward reaction, monomeric enzyme
purified protein [5] = substrate: CC(=O)CC(=O)SCCNC(=O)CCNC(=O)[C@H](O)C(C)(C)COP(=O)(O)OP(=O)(O)OC[C@H]1O[C@@H](n2cnc3c(N)ncnc32)[C@H](O)[C@@H]1OP(=O)(O)O; assay: purified protein; type: biochemical, Nitrosopumilus maritimus; conditions: 0.5 mM NADH, 100 mM Tris-HCl pH 7.8, 30°C, reverse reaction, monomeric enzyme
[6] = biological target: the molecule itself; assay: SEC; Superdex 200 Increase (24 ml), 0.75 ml/min, 20 mM Tris-HCl pH 7.8, 150 mM KCl; native mass from a standard curve (apoferritin, alcohol dehydrogenase, BSA, carbonic anhydrase)

B1: (S)-3-hydroxybutyryl-CoA dehydrogenase Nmar_1028 (enzyme, Nitrosopumilus maritimus SCM1, UniProt A9A3J2 1-379, looked up)
chain: MAVKNITILGSGVMGHGIAQVSATAGYNVVLRDIEQGFLDKAMEKIRWSLDKLVSKEKISKEEGDSIFGRITPVVDLKEAVKDAELVIEVVPEIMDLKKKVYAELDEVAAPEVIFASNTSTLPITEIANTTSRPDKFIGIHFFNPPQLMKLVEVIPGEKTSQEITDLTKDYVKSVNKQAVLCRKDVPGFIINRLFIPMVHEACYAKDRTGATLEEIDSAVKFNLGFPMGIFELADFTGMDVIHKATVEMHLRDKKVINPHPTVEKMFDEKKLGQKSGEGYYKYSDDKYERVELSQELAQKFNPIQLVANILNNAAWLVTNGASDIEEIEKAAQLGLGLKKPLFETAKEIGIKNIVDELNKLAEEHGEFYKPDPLLTSMQ
notes: (S)-3-hydroxybutyryl-CoA dehydrogenase Nmar_1028 of Nitrosopumilus maritimus strain SCM1; gene amplified from genomic DNA from the initiation codon to after the stop codon; predicted size 44.8 kDa; No removal of the His10 tag is described; also called HBDH; source: E. coli Rosetta 2 (DE3), purified (Ni-NTA)
Km (purified protein [1]): 16 ± 6 µM
Vmax (purified protein [1]): 113 µmol/min/mg
kcat/Km (purified protein [1]): 5.27e+06 M⁻¹ s⁻¹
Km (purified protein [2]): 100 ± 20 µM
Vmax (purified protein [2]): 84.4 µmol/min/mg
kcat/Km (purified protein [2]): 630000 M⁻¹ s⁻¹
Km (purified protein [3]): 2920 ± 630 µM
Vmax (purified protein [3]): 10.1 µmol/min/mg
kcat/Km (purified protein [3]): 3000 M⁻¹ s⁻¹
Km (purified protein [4]): 19 ± 2 µM
Vmax (purified protein [4]): 98.6 µmol/min/mg
kcat (purified protein [4]): 74 s⁻¹
kcat/Km (purified protein [4]): 3.88e+06 M⁻¹ s⁻¹
Km (purified protein [5]): 26 ± 4 µM
Vmax (purified protein [5]): 145 µmol/min/mg
kcat (purified protein [5]): 108 s⁻¹
kcat/Km (purified protein [5]): 4.04e+06 M⁻¹ s⁻¹
stoichiometry N [6]: 2
